Measured values published in publication PMC9907207.

Biological target: D614G VFLIP spike trimer (SARS-CoV-2)
Assay: cryo-EM structure

**Q.** “D614G VFLIP spike trimer (natural protein)” was tested. Which stoichiometry N did it give?
**A.** 3
